# Laboratory results reported in the supplement of paper PMC9170038.
# Test system: MS2 coat protein
# Assay: apparent KD of MS2 coat protein; designed switch direction (-1 OFF switch, 1 ON switch): 1; higher = weaker reporter binding
# How it was run: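 The apparent KD reported per design is the median over clusters of curve fits to normalised cluster fluorescence. The RNA switches were transcribed on Illumina chips by stalled E. coli RNA polymerase. SNAP-549-labelled MS2 coat protein was titrated from 0.7 or 1.5 nM, doubling up to 3 µM, in Tris-HCl pH 7.5 buffer containing KCl, MgCl2, BSA, DTT, tRNA and Tween-20, with no input, 200 uM small-molecule ligand, or an oligonucleotide input.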
# [1] = Eterna round: R95, input ligand: FMN 200 uM
# [2] = Eterna round: R95, input ligand: microRNA oligo, concentration not stated
# [3] = Eterna round: R95, input ligand: none
# [4] = input ligand: microRNA oligo, concentration not stated
sequence,measurement,setting,value
AGUCUACGGAAACGUAGACAGUGGAGCGUACAUGAGGAUCACCCAUGUCAUGUGAGAGCUACUUGUUCGUCUUGAGC [SENSOR #5] (puzzle: Sensor for hsa-mir-208a),apparent KD of MS2 coat protein,[1],26.4 nM
same,apparent KD of MS2 coat protein,[2],18.5 nM
same,apparent KD of MS2 coat protein,[3],26.8 nM
AGUGCAGCCUGAGCUGCACAAAAGCAUGUACAUGAGGAUCACCCAUGUCAUGUACAAGCUUUUUGCUCGUCUUAAAA [Mat - hsa-mir-208a - Mod of JL - D20] (puzzle: Sensor for hsa-mir-208a),apparent KD of MS2 coat protein,[1],529 nM
same,apparent KD of MS2 coat protein,[2],15.4 nM
same,apparent KD of MS2 coat protein,[3],688 nM
"AUAAAACAUGAGGAUCACCCAUGUAAAAAUAUGGGAGGAUAUGCGAAAUAAAAUAAAUAAGCAGAAGGCCUAAAAA [SS! MT 19] (Eterna round: R96, puzzle: Same State 1)",apparent KD of MS2 coat protein,input ligand: FMN 200 uM,21.1 nM
same,apparent KD of MS2 coat protein,[4],52.8 nM
same,apparent KD of MS2 coat protein,input ligand: none,62.7 nM
AUAAAACAUGAGGAUCACCCAUGUCAACAAAGUCGAGGAUAUGGGCAAAUAAAAGAAUAACCAGAAGGCGAAUAAU [salish99_ss1_r3_053] (puzzle: Same State 1),apparent KD of MS2 coat protein,[1],46 nM
same,apparent KD of MS2 coat protein,[2],283 nM
same,apparent KD of MS2 coat protein,[3],481 nM
AUAAAACAUGAGGAUCACCCAUGUCAACAAAGUCGAGGAUAUGGGCAAAUUAAAUAAGAACCAGAAGGCGAAUAAU [salish99_ss1_r3_024] (puzzle: Same State 1),apparent KD of MS2 coat protein,[1],33.3 nM
same,apparent KD of MS2 coat protein,[2],184 nM
same,apparent KD of MS2 coat protein,[3],232 nM
AUAAAACAUGAGGAUCACCCAUGUCAACAAAGUCUAGGAUAUGGGCAAAUAAAAUAAGAACCAGAAGGCGAAUAAU [salish99_ss1_r3_051] (puzzle: Same State 1),apparent KD of MS2 coat protein,[1],167 nM
same,apparent KD of MS2 coat protein,[2],177 nM
same,apparent KD of MS2 coat protein,[3],178 nM
AUAAAACAUGAGGAUCACCCAUGUCUACAAAGUCGAGGAUAUGGGCAAAUAAAAUAAGAACCAGAAGGCGAAUAAU [salish99_ss1_r3_044] (puzzle: Same State 1),apparent KD of MS2 coat protein,[1],62.6 nM
same,apparent KD of MS2 coat protein,[2],223 nM
same,apparent KD of MS2 coat protein,[3],275 nM
"AUAAACAGGCUAGGAUAUCCGGAAACUACAGGGCACAACCCUAUAGACAUGAGGAUCACCCAUGUGGAGAAGGAGCCACAUGAA [Ceesis] (Eterna round: R96, puzzle: Same State NG 2)",apparent KD of MS2 coat protein,input ligand: FMN 200 uM,40.6 nM
same,apparent KD of MS2 coat protein,[4],156 nM
same,apparent KD of MS2 coat protein,input ligand: none,195 nM
AUAAGGCAAGCUUUUUUCUCGUUGUGUAAACAUGAGGAUCACCCAUGUGCUCGCCCUGGAUCUUUGGAUCGCAGAAA [Rarisooron] (puzzle: Sensor for hsa-mir-208a),apparent KD of MS2 coat protein,[1],104 nM
same,apparent KD of MS2 coat protein,[2],33.6 nM
same,apparent KD of MS2 coat protein,[3],119 nM
AUAAGUUUGAUGCUCGUCCCUCCGUACAGACAUGAGGAUCACCCAUGUAGUCGGGAAGUAGCCCGGCCAGUAUGGCC [Biraza] (puzzle: Sensor for hsa-mir-208a),apparent KD of MS2 coat protein,[1],15.9 nM
same,apparent KD of MS2 coat protein,[2],12.6 nM
same,apparent KD of MS2 coat protein,[3],15 nM
AUAAGUUUGAUGCUCGUCUCUCCGUACAGACAUGAGGAUCACCCAUGUAGCCGGGAAGUAGCCCGACCAGUAUGGCC [Isriinus] (puzzle: Sensor for hsa-mir-208a),apparent KD of MS2 coat protein,[1],72.2 nM
same,apparent KD of MS2 coat protein,[2],23.9 nM
same,apparent KD of MS2 coat protein,[3],93.7 nM
"AUACAUGAGGAUCACCCAUGUAAUUAAUUAACUUGUAAGAUCAAGGAUAUCAGCUCGAAUAGAGCUGAGAAGGUGAUCACAUGU [SSNG3/21-C1] (Eterna round: R96, puzzle: Same State NG 3)",apparent KD of MS2 coat protein,[4],105 nM
"AUACUGUACCGAGGAUAUCCAUUUUUCUAACAUGAGGAUCACCCAUGUGAAGGGAUUGAGUUGUAGGAGAAGGCGGUAUAGUAU [JR_SSNG2_Sub062] (Eterna round: R96, puzzle: Same State NG 2)",apparent KD of MS2 coat protein,input ligand: FMN 200 uM,14.8 nM
same,apparent KD of MS2 coat protein,[4],11.6 nM
same,apparent KD of MS2 coat protein,input ligand: none,21.5 nM
"AUAGUUGCCGAAGGAUAUGAUGAGGAUCACCCAUCAGAAGGUCGGCUAUUGGGUGGAUAUGAGGAUCACCCGUGUUCUUUGGUC (Eterna round: R96, puzzle: Same State NG 1)",apparent KD of MS2 coat protein,input ligand: FMN 200 uM,22.4 nM
same,apparent KD of MS2 coat protein,[4],16.7 nM
same,apparent KD of MS2 coat protein,input ligand: none,22.9 nM
"AUAUGAGGAGCAGGAUAUGCGGAGAAGAAAGAAGCAGAAGGGCUCAUGGGACAACAUGAGGAUCACCCAUGUUCUCCGCGAUGA [AK SSNG1-V2-3.2] (Eterna round: R96, puzzle: Same State NG 1)",apparent KD of MS2 coat protein,input ligand: FMN 200 uM,80.2 nM
same,apparent KD of MS2 coat protein,[4],298 nM
same,apparent KD of MS2 coat protein,input ligand: none,523 nM
AUCAUAGUAGCGCAGGAUAUCCAGGUCGAGACAUGAGGAUCACCCAUGUCAGCAGGAGGACCAGAGGAGAAGGGUGAGAAAAUAA [Bimaan] (puzzle: Same State 2),apparent KD of MS2 coat protein,[1],12.5 nM
same,apparent KD of MS2 coat protein,[2],14.2 nM
same,apparent KD of MS2 coat protein,[3],16.7 nM
"AUCAUUUAUGCAGGAUAUGAUUAACAUGAGGAUCACCCAUGUGGUGUUGUGAGUAAGGAGAGUGAUCAGAAGGGCAUUUUUUUU [JMF's solution 72] (Eterna round: R96, puzzle: Same State NG 2)",apparent KD of MS2 coat protein,input ligand: FMN 200 uM,476 nM
same,apparent KD of MS2 coat protein,[4],296 nM
same,apparent KD of MS2 coat protein,input ligand: none,482 nM
"AUCCUACAUGAGGAUCACCCAUGUGACGCCUCGAUAGGAUAUGCGUGUGCCUUGGCGCAUGCAGAAGGAUUGUUGC [JL Aveso mod 7] (Eterna round: R96, puzzle: Same State 1)",apparent KD of MS2 coat protein,[4],20.3 nM
AUCCUACAUGAGGAUCACCCAUGUGACGCCUCGAUAGGAUAUGCGUGUGCCUUGGCGCAUGCAGAAGGAUUGUUGC [JL Aveso mod 7] (puzzle: Same State 1),apparent KD of MS2 coat protein,[1],69.2 nM
same,apparent KD of MS2 coat protein,[2],17.5 nM
same,apparent KD of MS2 coat protein,[3],27.1 nM
"AUGCCAAAACGAGGAUAUGGAGCCUUAUUGGCUCCAGAAGGUGUGACAUGAGGAUCACCCAUGUGGCAGUGGUCUAAUGACCAC [Eli NG1ss - 40] (Eterna round: R96, puzzle: Same State NG 1)",apparent KD of MS2 coat protein,input ligand: FMN 200 uM,94.2 nM
same,apparent KD of MS2 coat protein,[4],105 nM
same,apparent KD of MS2 coat protein,input ligand: none,133 nM
AUGUGGAAGCCACAGGAUAUACUAGGGUACACAUGAGGAUCACCCAUGUGCGGCUAAAAGUGCUAGUAGAAGGGUGGUAAAGAAA [Diartire] (puzzle: Same State 2),apparent KD of MS2 coat protein,[1],13.8 nM
same,apparent KD of MS2 coat protein,[2],12.5 nM
same,apparent KD of MS2 coat protein,[3],15 nM
"AUGUUUAAUGCAGGAUAUGAUUAACAUGAGGAUCACCCAUGUGGUGUUGUGAGUAAGGAGAGUGAUCAGAAGGGCAUUUUUUUU [JMF's solution 101] (Eterna round: R96, puzzle: Same State NG 2)",apparent KD of MS2 coat protein,[4],516 nM
